B1: FAM46C (parent)
chain: FDHLQNRLIATKNPEEIRGGGLLK

Variants of: B1
Assay: protein stability index of a GFP-peptide fusion (GPS, HEK-293T) (PSI 1-6); higher = more stable
Settings: c terminus: a fixed tail appended
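Further: lentivirally expressed fusions sorted by FACS into six bins by GFP to DsRed ratio, PSI derived from sequencing read proportions per bin multiplied by bin number.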

| Variant | protein stability index |
| --- | --- |
| FDHLQNRLIAYKNPEEIRGGGLLK [T11Y] | 3.31 |
| FDHLQNRLIACKNPEEIRGGGLLK [T11C] | 3.41 |
| FDHLQNRLIADKNPEEIRGGGLLK [T11D] | 3.75 |
| FDHLQNRLIAPKNPEEIRGGGLLK [T11P] | 3.63 |
| FDHLQNRLIATKNPQEIRGGGLLK [E15Q] | 2.53 |
| FDHLQNRLIATKNPLEIRGGGLLK [E15L] | 2.78 |
| FDHLQNRLIATKNPAEIRGGGLLK [E15A] | 3.92 |
| FDHLQNRLIATKNPHEIRGGGLLK [E15H] | 3.65 |
| FDHLQNRLIATKNPCEIRGGGLLK [E15C] | 2.9 |
| FDHLQNRLIATKNPYEIRGGGLLK [E15Y] | 1.97 |
| FDHLQNRLIATKNPREIRGGGLLK [E15R] | 3.89 |
| FDHLQNRLIATKNPNEIRGGGLLK [E15N] | 3.95 |
| FDHLQNRLIATKNPTEIRGGGLLK [E15T] | 3.29 |
| FDHLQNRLIATKNPPEIRGGGLLK [E15P] | 3.13 |
| FDHLQNRLIATKNPIEIRGGGLLK [E15I] | 2.93 |
| FDHLQNRLIATKNPKEIRGGGLLK [E15K] | 3.25 |
| FDHLQNRLIATKNPFEIRGGGLLK [E15F] | 3.06 |
| FDHLQNRLIATKNPDEIRGGGLLK [E15D] | 4.07 |
| FDHLQNRLIATKNPWEIRGGGLLK [E15W] | 2.63 |
| FDHLQNRLIATKNPSEIRGGGLLK [E15S] | 3.75 |
| FDHLQNRLIATKNPGEIRGGGLLK [E15G] | 2.99 |
| FDHLQNRLIATKNPMEIRGGGLLK [E15M] | 4.01 |
| FDHLQNRLIATKNPEEIRGFGLLK [G20F] | 2.77 |
| FDHLQNRLIATKNPEEIRGYGLLK [G20Y] | 2.85 |

| Variant | protein stability index |
| --- | --- |
| FDHLQNRLIATKNPEEIRGTGLLK [G20T] | 3.51 |
| FDHLQNRLIATKNPEEIRGHGLLK [G20H] | 3.72 |
| FDHLQNRLIATKNPEEIRGVGLLK [G20V] | 3.2 |
| FDHLQNRLIATKNPEEIRGMGLLK [G20M] | 2.76 |
| FDHLQNRLIATKNPEEIRGRGLLK [G20R] | 4.03 |
| FDHLQNRLIATKNPEEIRGKGLLK [G20K] | 3.98 |
| FDHLQNRLIATKNPEEIRGWGLLK [G20W] | 3.16 |
| FDHLQNRLIATKNPEEIRGPGLLK [G20P] | 3.6 |
| FDHLQNRLIATKNPEEIRGDGLLK [G20D] | 4.05 |
| FDHLQNRLIATKNPEEIRGAGLLK [G20A] | 3.44 |
| FDHLQNRLIATKNPEEIRGNGLLK [G20N] | 3.74 |
| FDHLQNRLIATKNPEEIRGIGLLK [G20I] | 3.11 |
| FDHLQNRLIATKNPEEIRGQGLLK [G20Q] | 2.42 |
| FDHLQNRLIATKNPEEIRGSGLLK [G20S] | 3.69 |
| FDHLQNRLIATKNPEEIRGLGLLK [G20L] | 4.19 |
| FDHLQNRLIATKNPEEIRGCGLLK [G20C] | 3.21 |
| FDHLQNRLIATKNPEEIRLGGLLK [G19L] | 2.57 |
| FDHLQNRLIATKNPEEIRTGGLLK [G19T] | 4.01 |
| FDHLQNRLIATKNPEEIRAGGLLK [G19A] | 3.48 |
| FDHLQNRLIATKNPEEIRHGGLLK [G19H] | 3.99 |
| FDHLQNRLIATKNPEEIRVGGLLK [G19V] | 3.18 |
| FDHLQNRLIATKNPEEIRNGGLLK [G19N] | 3.79 |
| FDHLQNRLIATKNPEEIRQGGLLK [G19Q] | 3.74 |
| FDHLQNRLIATKNPEEIRCGGLLK [G19C] | 3.57 |

| Variant | protein stability index |
| --- | --- |
| FDHLQNRLIATKNPEEIRMGGLLK [G19M] | 2.61 |
| FDHLQNRLIATKNPEEIRKGGLLK [G19K] | 4.26 |
| FDHLQNRLIATKNPEEIRDGGLLK [G19D] | 4.6 |
| FDHLQNRLIATKNPEEIRFGGLLK [G19F] | 1.73 |
| FDHLQNRLIATKNPEEIRIGGLLK [G19I] | 3.18 |
| FDHLQNRLIATKNPEEIRPGGLLK [G19P] | 3.29 |
| FDHLQNRLIATKNPEEIRSGGLLK [G19S] | 3.69 |
| FDHLQNRLIATKNPEEIRRGGLLK [G19R] | 4.27 |
| FDHLQNRLIATKNPEEIREGGLLK [G19E] | 4.04 |
| FDHLQNRLIATKNPEEIRYGGLLK [G19Y] | 3.25 |
| FDHLQNRLIATKNPEEIRWGGLLK [G19W] | 1.74 |
| FDHLQNRLIATKNPEGIRGGGLLK [E16G] | 2.93 |
| FDHLQNRLIATKNPEDIRGGGLLK [E16D] | 4.13 |
| FDHLQNRLIATKNPEHIRGGGLLK [E16H] | 2.55 |
| FDHLQNRLIATKNPENIRGGGLLK [E16N] | 3.67 |
| FDHLQNRLIATKNPEQIRGGGLLK [E16Q] | 3.58 |
| FDHLQNRLIATKNPEAIRGGGLLK [E16A] | 3.43 |
| FDHLQNRLIATKNPEPIRGGGLLK [E16P] | 2.73 |
| FDHLQNRLIATKNPEIIRGGGLLK [E16I] | 3.9 |
| FDHLQNRLIATKNPEFIRGGGLLK [E16F] | 2.44 |
| FDHLQNRLIATKNPEWIRGGGLLK [E16W] | 2.5 |
| FDHLQNRLIATKNPESIRGGGLLK [E16S] | 3.48 |
| FDHLQNRLIATKNPETIRGGGLLK [E16T] | 3.79 |
| FDHLQNRLIATKNPERIRGGGLLK [E16R] | 3.47 |

| Variant | protein stability index |
| --- | --- |
| FDHLQNRLIATKNPEYIRGGGLLK [E16Y] | 3.91 |
| FDHLQNRLIATKNPEVIRGGGLLK [E16V] | 3.61 |
| FDHLQNRLIATKNPEKIRGGGLLK [E16K] | 4.02 |
| FDHLQNRLIATKNPELIRGGGLLK [E16L] | 2.9 |
| FDHLQNRLIATKNPECIRGGGLLK [E16C] | 2.85 |
| FDHLQNRLINTKNPEEIRGGGLLK [A10N] | 4.07 |
| FDHLQNRLIPTKNPEEIRGGGLLK [A10P] | 4.52 |
| FDHLQNRLIGTKNPEEIRGGGLLK [A10G] | 3.52 |
| FDHLQNRLIETKNPEEIRGGGLLK [A10E] | 4 |
| FDHLQNRLIKTKNPEEIRGGGLLK [A10K] | 3.49 |
| FDHLQNRLIDTKNPEEIRGGGLLK [A10D] | 4.49 |
| FDHLQNRLICTKNPEEIRGGGLLK [A10C] | 3.46 |
| FDHLQNRLIITKNPEEIRGGGLLK [A10I] | 2.71 |
| FDHLQNRLITTKNPEEIRGGGLLK [A10T] | 3.88 |
| FDHLQNRLIVTKNPEEIRGGGLLK [A10V] | 3.38 |
| FDHLQNRLIYTKNPEEIRGGGLLK [A10Y] | 1.87 |
| FDHLQNRLIQTKNPEEIRGGGLLK [A10Q] | 2.25 |
| FDHLQNRLILTKNPEEIRGGGLLK [A10L] | 2.57 |
| FDHLQNRLIATKNPEEIRGGCLLK [G21C] | 3.29 |
| FDHLQNRLIATKNPEEIRGGDLLK [G21D] | 4 |
| FDHLQNRLIATKNPEEIRGGALLK [G21A] | 3.69 |
| FDHLQNRLIATKNPEEIRGGELLK [G21E] | 3.93 |
